From patent US20260115256A1 (HANGZHOU SCIWIND BIOSCIENCES, published 2026)
*1 amine or outer side, *2 acyl side, *3 side chain or, on linkers, in order; H or OH if unused. Bridges are numbered along the chain shown (N, C = ends). Primed or numbered codes have the meaning given here. Where no end group is shown, it is not given here. Side-chain parts run from the residue outwards. [ ]: non-standard residue; d: D form. The star is where a group is joined. C20 diacid = O=C(O)CCCCCCCCCCCCCCCCCCC(=O)*; γGlu = O=C(O)[C@H](CCC(=O)[*:2])N[*:1]; βAsp = O=C(O)[C@H](CC(=O)[*:2])N[*:1]; Aad = N[C@@H](CCCC(=O)O)C(=O)O; Orn = NCCC[C@H](N)C(=O)O; Dab = NCC[C@H](N)C(=O)O; Inp′ = not defined here; Pip′ = not defined here; Trx′ = not defined here; Dap = NC[C@H](N)C(=O)O; AEEA = NCCOCCOCC(=O)O

T1: human amylin receptor (AMY3) on CHO-K1/Ga15/AMY3 cells (human, UniProt P30988 25-474; O60896 24-148)
T1 sequence (looked up) 1: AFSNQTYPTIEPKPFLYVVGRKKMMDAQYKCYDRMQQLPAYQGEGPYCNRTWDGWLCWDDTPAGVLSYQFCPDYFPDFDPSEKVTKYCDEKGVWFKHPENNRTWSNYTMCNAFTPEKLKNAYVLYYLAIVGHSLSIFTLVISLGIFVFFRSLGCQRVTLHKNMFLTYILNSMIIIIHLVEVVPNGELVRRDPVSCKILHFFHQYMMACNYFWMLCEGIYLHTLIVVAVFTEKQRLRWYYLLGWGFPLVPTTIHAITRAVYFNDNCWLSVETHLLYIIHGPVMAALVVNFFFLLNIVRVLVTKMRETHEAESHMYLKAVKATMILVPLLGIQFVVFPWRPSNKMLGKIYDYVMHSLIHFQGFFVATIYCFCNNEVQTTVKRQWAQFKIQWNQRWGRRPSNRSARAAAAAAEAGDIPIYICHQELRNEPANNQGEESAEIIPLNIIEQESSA
T1 sequence (looked up) 2: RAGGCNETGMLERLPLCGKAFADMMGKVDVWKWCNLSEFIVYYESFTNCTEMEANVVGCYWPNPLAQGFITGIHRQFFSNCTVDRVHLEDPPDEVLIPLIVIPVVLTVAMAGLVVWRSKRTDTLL


Molecular target: T1, human amylin receptor (AMY3) on …
Assay: cell-based or functional assay

| Binder | EC50, CRE-luciferase assay [nM] |
| --- | --- |
| CNTATCATQRLAEFLRHSSNNLK([γGlu-C20 diacid])PILPPTNVGSNTX-NH2 (disulfide 1-6 (inferred); not fully specified (residue 36); printed as CNTATCATQRLAEFLRHSSNNLKPILPPTNVGSNT-trans-Hyp-NH2) [PD053] | 0.075 |
| {C20 diacid-γGlu}-KGGGGRCNTATCATQRLADFLRHSSNNLRPILPPTNVGSNTP-NH2 (disulfide 7-12 (inferred)) [PD198] | 0.029 |
| {C20 diacid-AEEA-AEEA-Inp′}-KCNTATCATQRLADFLRHSSNNLKPILPPTNVGSNTP-NH2 (disulfide 2-7 (inferred)) [PD192] | 0.087 |
| RCNTATCATQRLAEFLRHSSNNLK([γGlu-C20 diacid])PILPPTNVGSNT[Pip′]-NH2 (disulfide 2-7 (inferred)) [PD057] | 0.793 |
| RCNTATCATQRLADFLRHSSNNLK([γGlu-C20 diacid])PILPPTNVGSNTP-NH2 (disulfide 2-7 (inferred)) [PD048] | 0.047 |
| CNTATCATQRLADFLRHSSNNLK([γGlu-C20 diacid])PILPPTNVGSNTX-NH2 (disulfide 1-6 (inferred); not fully specified (residue 36); printed as CNTATCATQRLADFLRHSSNNLKPILPPTNVGSNT-trans-Hyp-NH2) [PD054] | 0.049 |
| RCNTATCATQRLA[Dab]FLRHSSNNLK([γGlu-C20 diacid])PILPPTNVGSNTP-NH2 (disulfide 2-7 (inferred)) [PD044] | 2.62 |
| {C20 diacid}-D[AEEA][AEEA]KCNTATCATQRLADFLRHSSNNLKPILPPTNVGSNTP-NH2 (disulfide 5-10 (inferred)) [PD193] | 0.074 |
| {C20 diacid-βAsp-AEEA-AEEA}-KCNTATCATQRLADFLRHSSNNLKPILPPTNVGSNTP-NH2 (disulfide 2-7 (inferred)) [PD196] | 0.064 |
| CNTATCATQRLADFLRHSSNNLK([γGlu-C20 diacid])PILPPTNVGSNTP-NH2 (disulfide 1-6 (inferred)) [PD050] | 0.098 |
| RCNTATCATQRLAEFL[Orn]HSSNNLK([γGlu-C20 diacid])PILPPTNVGSNTP-NH2 (disulfide 2-7 (inferred)) [PD046] | 1.68 |
| RCNTATCATQRLAEFLRHSSNNLK([γGlu-C20 diacid])PILPPTNVGSNT[cis‑Hyp]-NH2 (disulfide 2-7 (inferred)) [PD055] | 0.909 |
| {C20 diacid-AEEA-AEEA}-KCNTATCATQRLADFLRHSSNNLKPILPPTNVGSNTX-NH2 (disulfide 2-7 (inferred); not fully specified (residue 37); printed as KCNTATCATQRLADFLRHSSNNLKPILPPTNVGSNT-trans-Hyp-NH2) [PD187] | 0.016 |
| RCNTATCATQRLAEFLRHSSNK([AEEA-AEEA-γGlu-C20 diacid])LGPILPPTNVGSNTP-NH2 (disulfide 2-7 (inferred)) [PD002] | 0.119 |
| RCNTATCATQRLA[Dap]FLRHSSNNLK([γGlu-C20 diacid])PILPPTNVGSNTP-NH2 (disulfide 2-7 (inferred)) [PD045] | 0.364 |

Other lines, results leading:

| EC50, CRE-luciferase assay [nM] | Binder |
| --- | --- |
| 0.029 | {C20 diacid-Trx′-AEEA-AEEA}-KCNTATCATQRLADFLRHSSNNLKPILPPTNVGSNTP-NH2 (disulfide 2-7 (inferred); reading uncertain; also: printed as N-terminal: 2*AEEA + Trx + C20 diacid; C-terminal NH2) [PD189] |
| 1.13 | RCNTATCATQRLA[Aad]FLRHSSNNLK([γGlu-C20 diacid])PILPPTNVGSNTP-NH2 (disulfide 2-7 (inferred)) [PD043] |
| 0.025 | {C20 diacid-γGlu}-RCNTATCATQRLADFLRHSSNNLRPILPPTNVGSNTP-NH2 (disulfide 2-7 (inferred)) [PD197] |
| 0.017 | {C20 diacid-AEEA-AEEA-Trx′}-KCNTATCATQRLADFLRHSSNNLKPILPPTNVGSNTP-NH2 (disulfide 2-7 (inferred); reading uncertain; also: printed as N-terminal: Trx + 2*AEEA + C20 diacid; C-terminal NH2) [PD190] |
| 0.074 | {C20 diacid-AEEA-AEEA}-DKCNTATCATQRLADFLRHSSNNLKPILPPTNVGSNTP-NH2 (disulfide 3-8 (inferred)) [PD194] |
| 0.061 | {C20 diacid-Inp′-AEEA-AEEA}-KCNTATCATQRLADFLRHSSNNLKPILPPTNVGSNTP-NH2 (disulfide 2-7 (inferred)) [PD191] |
| 0.073 | RCNTATCATQRLAEFLRHSSNNLK([γGlu-C20 diacid])PILPPTNVGSNTP-NH2 (disulfide 2-7 (inferred)) [PD047] |
| 0.586 | RCNTATCATQRLADFLRHSSNNLK([γGlu-C20 diacid])PILPPTNVGSNT[cis‑Hyp]-NH2 (disulfide 2-7 (inferred)) [PD056] |
| 0.025 | {C20 diacid-βAsp-AEEA-AEEA}-KCNTATCATQRLADFLRHSSNNLKPILPPTNVGSNTP-NH2 (disulfide 2-7 (inferred)) [PD195] |
| 0.215 | CNTATCATQRLAEFLRHSSNNLK([γGlu-C20 diacid])PILPPTNVGSNTP-NH2 (disulfide 1-6 (inferred)) [PD049] |
| 0.025 | {C20 diacid-AEEA-AEEA-γGlu}-KCNTATCATQRLADFLRHSSNNLKPILPPTNVGSNTP-NH2 (disulfide 2-7 (inferred)) [PD188] |
